# Test results taken from US8541367B2, “Plasma anti-diabetic NUCB2 peptide (pladin) and uses thereof” (Landing Biotech, Inc., priority 2009, dated 2013).
# Entries after “also recorded” stand apart in the source; their conditions may differ.
# Experiments:
# db/db mice [1] = test: Food intake and body weight of db/db mice; format: in vivo, mouse; details: i.v. plasmin inhibitor to db/db (AMCA 15 mg/day once daily for three days)
# db/db mice [2] = test: Serum nesfatin-1 / pladin in db/db after i.v. plasmin inhibitor (HPLC); format: in vivo, mouse; details: 30 minutes after i.v. injection
# Method: Hypothalamus in acetic acid supplemented with protease inhibitor cocktail tablets (Roche, Indianapolis, Ind.) was homogenized, sonicated and heated at 95° C. for 15 minutes. The samples were then centrifuged at 13,200 rpm at 4° C. for 30 minutes. The supernatants were finally collected as their protein contents were determined by the Bradford assay (Thermo-Fisher Sci. Rockford, Ill.). Mouse serum was freshly prepared by drawing blood through ophthalmectomy. About […] hypothalamic total proteins or 25 μL serum were analyzed with Waters Delta 600E/2487/717 HPLC system using an analytical C18 reverse phase column (4.6×250 mm/5 μm, Hambon, Zhangjiagang, CN). Nesfatin-1 was eluted with a linear gradient from 20%-40% solvent B (solvent A: water with 0.1% trifluoroacetic acid, solvent B: acetonitrile with 0.1% trifluoroacetic acid) for 20 minutes at the flow rate of 1 ml/minute. The purified nesfatin-1 was used as the standard to determine the retention time and plot the standard curve. The fraction collected at the retention time was sent for the mass spectrometry analysis.
# Mouse serum was freshly prepared by drawing blood through ophthalmectomy. The sera of plg^−/−lepr^−/− and db/db mice were directly analyzed with Waters Delta 600E/2487/717 HPLC System using a C18 reverse phase column (4.6×250 mm, 5 μm, Hambon, Zhangjiagang, CN) and eluted with a linear gradient from 20%-40% acetonitrile in 0.1% TFA for 20 minutes at the flow rate of 1 ml/minute (Enriori et al., 2007). Compared with db/db mice, the divergent fractions eluted in plg^−/−lepr^−/− mice were collected for the determination of molecular weight using the Applied Biosystems 4800 Proteomics Analyzer (Applied Biosystems). The MS spectra were acquired in the liner mode at a range of peptide mass from 3,000 to 20,000 Dalton.
# db/db mice [3] = test: Blood glucose of db/db mice after injection of test substance; format: in vivo, mouse; details: for anti-hyperglycemic effect (blood glucose): peripheral/i.v. injection, db/db, dose not stated; for active duration of anti-hyperglycemic effect in vivo: i.v. injection, hyperglycemic db/db mice
# db/db mice [4] = test: as above; format: in vivo, mouse; details: for effect of pre-treatment on the anti-diabetic effect of nesfatin-1: GW9662 0.45 μg/g i.v. or Compound C 20 mg/kg i.p. before 100 ug Nesfatin-1 i.v., blood glucose in 6 hours; for effect of pre-injection on the anti-hyperglycemic effect of rPladin: GW9662 0.45 ug/g i.v., rosiglitazone or Compound C 20 ug/g i.p., then 10 nmol rPladin i.v., 3 hours
# Method: GW9662, a PPAR-gamma irreversible inhibitor, was i.v. injected into the tail vein of db/db mice at the dose of 0.45 μg per gram body weight. After 30 minutes, 100 ug Nesfatin-1 was injected into the tail vein of db/db mice. Blood glucose was measured in 6 hours.
# Compound C, a 5′-AMP-activated protein kinase (AMPK) specific inhibitor, was intraperitoneally injected to db/db mice at the dose of 20 mg per kg body weight. Subsequently, 100 ug Nesfatin-1 was injected into the tail vein of db/db mice. Blood glucose was measured in 6 hours.
# Without anesthesia, mice were placed into a restricting tube. The testing substance such as nesfatin-1 or rPladin was i.v. injected via mice tail vein with a total volume of 150 μL. After that mice were returned to the cages with food and water available freely. In the i.p. injection experiment, mice without anesthesia were injected with the testing substances directly into the peritoneal with a total volume of 200 μL.
# db/db mice of 16 to 18 weeks old were i.v. injected with 0.45 ug/g of GW9662 (Sigma, St. Louis, Mo.), i.p. injected with 20 ug/g rosiglitazone (Sigma, St. Louis, Mo.) or 20 ug/g Compound C (Sigma, St. Louis, Mo.), and then randomly assigned to receive the i.v. injection of 10 nmol rPladin or the same volume of saline as the control. Blood glucose was measured at 3 hours after the injection using the glucose meter (Roche, Indianapolis, Ind.).
# plasmin = plasmin (Homo sapiens, UniProt P00747); test: Incubation with plasmin in vitro (proteolysis); format: biochemical; details: incubated with plasmin in vitro
# Chain of plasmin (P00747 581-810 limits assumed, species assumed): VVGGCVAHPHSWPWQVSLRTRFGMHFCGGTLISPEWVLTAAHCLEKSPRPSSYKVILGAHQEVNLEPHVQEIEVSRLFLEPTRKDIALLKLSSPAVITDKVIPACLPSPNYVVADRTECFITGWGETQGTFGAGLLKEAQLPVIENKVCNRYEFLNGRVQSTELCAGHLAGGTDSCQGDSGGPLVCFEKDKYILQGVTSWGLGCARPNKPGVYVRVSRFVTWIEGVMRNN
# Chain of plasmin (P00747 97-580 partner limits assumed, species assumed): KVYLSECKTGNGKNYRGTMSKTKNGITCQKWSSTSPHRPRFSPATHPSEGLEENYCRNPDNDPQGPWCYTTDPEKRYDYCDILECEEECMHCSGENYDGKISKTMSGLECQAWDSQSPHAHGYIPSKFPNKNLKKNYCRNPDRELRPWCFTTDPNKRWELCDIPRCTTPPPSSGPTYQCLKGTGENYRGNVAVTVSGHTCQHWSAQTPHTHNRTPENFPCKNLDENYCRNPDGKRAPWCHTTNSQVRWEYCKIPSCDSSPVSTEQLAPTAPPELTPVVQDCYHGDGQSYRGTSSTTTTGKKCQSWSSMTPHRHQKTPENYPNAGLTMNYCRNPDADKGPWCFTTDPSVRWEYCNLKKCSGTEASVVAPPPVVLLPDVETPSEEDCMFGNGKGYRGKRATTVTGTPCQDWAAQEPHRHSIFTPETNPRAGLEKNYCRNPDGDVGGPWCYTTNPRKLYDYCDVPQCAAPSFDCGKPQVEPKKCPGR
# Description: The recovery of hypothalamic nesfatin-1 in plg^−/−lepr^−/− was consistent to its normalization in food intake and body weight. Fasted mice always had less nesfatin-1 in hypothalamus than their freely feeding counterparties (FIG. 2b). Furthermore, plasminogen deficiency provided a unique approach to study the chronic effect of elevated nesfatin-1 in hyperphagic obese animals, which was impossible for the i.c.v. or i.p. administration due to the short half-time of nesfatin-1. Consequently, agrp and npy were found reduced in plg^−/−lepr^−/−, while pomc was elevated compared with plg^+/+lepr^−/− (FIG. 3), contradicting to the previous report that i.c.v. nesfatin-1 didn't alter the expression of pomc, npy and agrp. Consistent to the present finding, the same group reported the up-regulation of pomc by i.p. nesfatin-1 in NTS recently.
# Carefully examining the amino acid sequence of pladin (SEQ ID NO: 23), it has several putative cleavage sites by plasmin (FIG. 11A).
molecule,measurement,setting,value
aprotinin,body weight,db/db mice [1],reduction
same,food intake,db/db mice [1],reduction
same,circulating (serum) nesfatin-1,db/db mice [2],increased
"ADIEEIRSGR LSQELDLVSH (ADIEEIRSGRLSQELDLVSH; A synthetic peptide which was the C-terminal portion of pladin) [SEQ ID NO:22, synthetic 20 amino acids peptide, C-terminal portion of pladin]","anti-hyperglycemic activity, fold less than rPladin","db/db mice [3]; i.v., db/db mice",more than 3 fold
same,anti-hyperglycemic effect (blood glucose),db/db mice [3],anti-hyperglycemic
c1cc(-c2cnn3cc(-c4ccc(OCCN5CCCCC5)cc4)cnc23)ccn1 [Compound C],effect of pre-treatment on the anti-diabetic effect of nesfatin-1,db/db mice [4],fully inhibited
same,effect of pre-injection on the anti-hyperglycemic effect of rPladin,db/db mice [4],abolished; also recorded: prevented
O=C(Nc1ccccc1)c1cc([N+](=O)[O-])ccc1Cl [GW9662],effect of pre-treatment on the anti-diabetic effect of nesfatin-1,db/db mice [4],fully inhibited
same,effect of pre-injection on the anti-hyperglycemic effect of rPladin,db/db mice [4],abolished; also recorded: prevented
"ANAEDIKSGKLSQELDFVSH (amino acids by MALDI-TOF/TOF with Trypsic Peptides) [SEQ ID NO:24, synthetic 20 amino acids peptide, a portion of NUCB1]",anti-hyperglycemic effect (blood glucose),db/db mice [3],anti-hyperglycemic
A4: pladin mutant A4 (Lys28→Ala) (protein) peptide: TKVHNTEPVENARIEPPDTGLYYDEYLAQVIEVLETDPHFREKLQKADIEEIRSGRLSQELDLVSHKVR,active duration of anti-hyperglycemic effect in vivo,db/db mice [3],18 h
same,proteolysis by plasmin,plasmin,resistant to plasmin proteolysis
"TKVHNTEPVENARIEPPDTGLYYDEYAKAAAAALETDPHFREKLQKADIEEIRSGRLSQELDLVSHKVR (protein, amino acid sequence of Mutant A90) TKVHNTEPVENARIEPPDTGLYYDEYAKAAAAALETDPHFREKLQKADIEEIRSGRLSQELDLVSHKVR",active duration of anti-hyperglycemic effect in vivo,db/db mice [3],> 24 h
"acetylated rPladin: rPladin acetylated with N-acetylimidazole; three Tyr and three Lys residues modified (protein, also: three Tyr and three Lys acetylated with N-acetylimidazole, rPladin acetylated with N-acetylimidazole; three Tyr and three Lys residues modified) peptide: TKVHNTEPVENARIEPPDTGLYYDEYLKQVIEVLETDPHFREKLQKADIEEIRSGRLSQELDLVSHKVR",active duration of anti-hyperglycemic effect in vivo,db/db mice [3],12 h
same,anti-hyperglycemic activity compared with reference peptide,"db/db mice [3]; i.v., db/db mice",unchanged
same,proteolysis by plasmin,plasmin,resistant to the proteolysis by plasmin
A5: pladin mutant A5 (Lys13→Ala as printed; Arg13 in sequence) (protein) peptide: TKVHNTEPVENAAIEPPDTGLYYDEYLKQVIEVLETDPHFREKLQKADIEEIRSGRLSQELDLVSHKVR,active duration of anti-hyperglycemic effect in vivo,db/db mice [3],12 h
same,proteolysis by plasmin,plasmin,resistant to plasmin proteolysis
"TKVHNTEPVENARIEPPDTGLYYDEYSAAAALETDPHFREKLQKADIEEIRSGRLSQELDLVSHKVR (protein, amino acid sequence of Mutant A91) TKVHNTEPVENARIEPPDTGLYYDEYSAAAALETDPHFREKLQKADIEEIRSGRLSQELDLVSHKVR",active duration of anti-hyperglycemic effect in vivo,db/db mice [3],> 24 h
"TKVHNTEPVENARIEPPDTGLYYDEYAALETDPHFREKLQKADIEEIRSGRLSQELDLVSHKVR (protein, amino acid sequence of Mutant A92) TKVHNTEPVENARIEPPDTGLYYDEYAALETDPHFREKLQKADIEEIRSGRLSQELDLVSHKVR",active duration of anti-hyperglycemic effect in vivo,db/db mice [3],> 12 h
"VPVDRAAPPQEDSQATETPDTGLYYHRYLQEVINVLETDGHFREKLQAANAEDIKSGKLSQELDFVSHNVRTKLDELK (protein, amino acids recombinant peptide of NUCB1, 78 amino acids recombinant peptide, N-terminal portion of NUCB1) VPVDRAAPPQEDSQATETPDTGLYYHRYLQEVINVLETDGHFREKLQAANAEDIKSGKLSQELDFVSHNVRTKLDELK","molar anti-hyperglycemic activity, fold higher than rPladin or nesfatin-1","db/db mice [3]; i.v., db/db mice, within 3 hours",at least 2 fold
same,"active duration, fold less than rPladin or nesfatin-1",db/db mice [3]; in vivo,at least 2 fold
same,anti-hyperglycemic effect (blood glucose),db/db mice [3],anti-hyperglycemic
